# Source: US20020039999A1
# Molecular target: opioid receptors of rat brain homogenate ([3H]-Naloxone binding sites)
# Experiment: [3H]-Naloxone (1.0 nM) displacement, rat brain homogenate, filtration
% inhibition at 0.1 nM,% inhibition at 10 nM,% inhibition at 1000 nM,Substance
2.76%,9.89%,91.8%,Dynorphin A 1-13-NH2 (peptide)
1.66%,-0.19%,44.1%,Dynorphin A 2-13-NH2 (peptide)
-0.6%,–,–,Human serum albumin (HSA) (from UniProt P02768 25-609)
-3.21%,4.87%,12.7%,Dynorphin A 2-17-NH2 (peptide)
